Assay results taken from IntAct's records for PubMed 35512704.

B1: Speckle-type POZ protein (Homo sapiens), O43791 (parent)
chain: MSRVPSPPPPAEMSSGPVAESWCYTQIKVVKFSYMWTINNFSFCREEMGEVIKSSTFSSGANDKLKWCLRVNPKGLDEESKDYLSLYLLLVSCPKSEVRAKFKFSILNAKGEETKAMESQRAYRFVQGKDWGFKKFIRRDFLLDEANGLLPDDKLTLFCEVSVVQDSVNISGQNTMNMVKVPECRLADELGGLWENSRFTDCCLCVAGQEFQAHKAILAARSPVFSAMFEHEMEESKKNRVEINDVEPEVFKEMMCFIYTGKAPNLDKMADDLLAAADKYALERLKVMCEDALCSNLSVENAAEILILADLHSADQLKTQAVDFINYHASDVLETSGWKSMVVSHPHLVAEAYRSLASAQCPFLGPPRKRLKQS

Variants of: B1
Conditions: with cdk6_human CDK6, Q00534

Variant | effect of a mutation on the interaction
F133V | with no effect

Variants of: B1
Conditions: with cdn2c_human CDKN2C

Variant | effect of a mutation on the interaction
F133V | with no effect

Variants of: B1
Conditions: with chd1l_human CHD1L

Variant | effect of a mutation on the interaction
F133V | with no effect

Variants of: B1
Conditions: with chd2_human CHD2, O14647

Variant | effect of a mutation on the interaction
F133V | with no effect

Variants of: B1
Conditions: with ch3l1_human CHI3L1, P36222

Variant | effect of a mutation on the interaction
F133V | with no effect

Variants of: B1
Conditions: with cul3_human CUL3, Q13618

Variant | effect of a mutation on the interaction
F133V | with no effect

Variants of: B1
Conditions: with cul4b_human CUL4B

Variant | effect of a mutation on the interaction
F133V | with no effect

Variants of: B1
Conditions: with daxx_human DAXX

Variant | effect of a mutation on the interaction
F133V | with no effect

Variants of: B1
Conditions: with ddx5_human DDX5, P17844

Variant | effect of a mutation on the interaction
F133V | with no effect

Variants of: B1
Conditions: with dll3_human DLL3, Q9NYJ7

Variant | effect of a mutation on the interaction
F133V | with no effect

Variants of: B1
Conditions: with duox2_human DUOX2, Q9NRD8

Variant | effect of a mutation on the interaction
F133V | with no effect

Variants of: B1
Conditions: with e2f2_human E2F2, Q14209

Variant | effect of a mutation on the interaction
F133V | with no effect

Variants of: B1
Conditions: with e2f3_human E2F3, O00716

Variant | effect of a mutation on the interaction
F133V | with no effect

Variants of: B1
Conditions: with e2f5_human E2F5, Q15329

Variant | effect of a mutation on the interaction
F133V | with no effect

Variants of: B1
Conditions: with e2f6_human E2F6, O75461

Variant | effect of a mutation on the interaction
F133V | with no effect

Variants of: B1
Conditions: with e2f8_human E2F8, A0AVK6
Chain of e2f8_human E2F8, A0AVK6 (A0AVK6 whole entry): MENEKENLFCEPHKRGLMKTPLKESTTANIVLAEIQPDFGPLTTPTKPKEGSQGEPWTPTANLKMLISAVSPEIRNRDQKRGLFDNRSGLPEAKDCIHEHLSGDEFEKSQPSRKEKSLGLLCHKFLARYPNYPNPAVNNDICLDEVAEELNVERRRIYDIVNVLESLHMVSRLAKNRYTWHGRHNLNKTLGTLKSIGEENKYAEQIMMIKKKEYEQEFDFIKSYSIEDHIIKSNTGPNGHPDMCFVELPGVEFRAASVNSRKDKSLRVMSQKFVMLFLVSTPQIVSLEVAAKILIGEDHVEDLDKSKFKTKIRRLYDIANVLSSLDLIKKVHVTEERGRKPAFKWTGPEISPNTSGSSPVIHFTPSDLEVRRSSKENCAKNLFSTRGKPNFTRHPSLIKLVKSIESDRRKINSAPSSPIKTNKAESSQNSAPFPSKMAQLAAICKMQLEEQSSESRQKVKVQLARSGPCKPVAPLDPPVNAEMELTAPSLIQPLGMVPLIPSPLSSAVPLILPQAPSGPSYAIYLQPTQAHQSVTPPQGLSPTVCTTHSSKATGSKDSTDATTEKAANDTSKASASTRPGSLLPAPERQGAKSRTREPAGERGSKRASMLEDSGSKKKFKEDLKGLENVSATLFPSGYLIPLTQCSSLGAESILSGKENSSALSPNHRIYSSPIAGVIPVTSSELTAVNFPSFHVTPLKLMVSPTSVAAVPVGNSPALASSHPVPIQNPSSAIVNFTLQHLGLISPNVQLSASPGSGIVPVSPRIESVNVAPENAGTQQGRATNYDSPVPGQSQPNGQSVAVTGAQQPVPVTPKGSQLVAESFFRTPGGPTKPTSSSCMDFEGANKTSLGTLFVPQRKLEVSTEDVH

Variant | effect of a mutation on the interaction
F133V | with no effect

Variants of: B1
Conditions: with if4e_human EIF4E

Variant | effect of a mutation on the interaction
F133V | with no effect

Variants of: B1
Conditions: with epha7_human EPHA7, Q15375
Chain of epha7_human EPHA7, Q15375 (Q15375 whole entry, looked up): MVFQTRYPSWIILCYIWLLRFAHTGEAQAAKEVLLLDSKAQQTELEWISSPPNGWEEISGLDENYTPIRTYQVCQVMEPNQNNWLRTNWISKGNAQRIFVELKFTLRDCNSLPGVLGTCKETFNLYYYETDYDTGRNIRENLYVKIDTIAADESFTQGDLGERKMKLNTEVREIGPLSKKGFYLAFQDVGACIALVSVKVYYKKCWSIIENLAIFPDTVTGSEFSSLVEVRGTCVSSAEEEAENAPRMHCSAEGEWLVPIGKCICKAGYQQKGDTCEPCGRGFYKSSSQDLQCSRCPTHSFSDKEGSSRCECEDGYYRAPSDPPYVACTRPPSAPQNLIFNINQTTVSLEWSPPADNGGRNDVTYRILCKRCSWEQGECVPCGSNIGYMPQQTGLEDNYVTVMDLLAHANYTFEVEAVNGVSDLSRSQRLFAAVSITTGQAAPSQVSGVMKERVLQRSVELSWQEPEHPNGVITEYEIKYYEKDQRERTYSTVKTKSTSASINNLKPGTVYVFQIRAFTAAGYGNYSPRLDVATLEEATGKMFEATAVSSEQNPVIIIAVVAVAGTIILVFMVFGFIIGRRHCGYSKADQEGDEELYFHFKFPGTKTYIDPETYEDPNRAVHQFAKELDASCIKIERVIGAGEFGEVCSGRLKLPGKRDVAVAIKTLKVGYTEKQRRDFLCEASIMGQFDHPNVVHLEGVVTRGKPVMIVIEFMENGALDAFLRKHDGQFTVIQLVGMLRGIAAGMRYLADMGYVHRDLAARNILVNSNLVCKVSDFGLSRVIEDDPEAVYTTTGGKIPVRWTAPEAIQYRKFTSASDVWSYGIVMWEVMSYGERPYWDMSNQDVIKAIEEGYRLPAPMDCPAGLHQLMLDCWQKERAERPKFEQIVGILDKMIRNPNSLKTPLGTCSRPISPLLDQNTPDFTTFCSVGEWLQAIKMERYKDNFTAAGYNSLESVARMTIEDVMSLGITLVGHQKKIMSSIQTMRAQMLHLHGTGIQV

Variant | effect of a mutation on the interaction
F133V | with no effect

Variants of: B1
Conditions: with ephb1_human EPHB1, P54762

Variant | effect of a mutation on the interaction
F133V | with no effect

Variants of: B1
Conditions: with erbb3_human ERBB3, P21860

Variant | effect of a mutation on the interaction
F133V | with no effect

Variants of: B1
Conditions: with erbb4_human ERBB4, Q15303

Variant | effect of a mutation on the interaction
F133V | with no effect

Variants of: B1
Conditions: with esr1_human ESR1, P03372

Variant | effect of a mutation on the interaction
F133V | with no effect

Variants of: B1
Conditions: with etv1_human ETV1, P50549

Variant | effect of a mutation on the interaction
F133V | with no effect

Variants of: B1
Conditions: with ezh1_human EZH1, Q92800
Chain of ezh1_human EZH1, Q92800 (Q92800 whole entry): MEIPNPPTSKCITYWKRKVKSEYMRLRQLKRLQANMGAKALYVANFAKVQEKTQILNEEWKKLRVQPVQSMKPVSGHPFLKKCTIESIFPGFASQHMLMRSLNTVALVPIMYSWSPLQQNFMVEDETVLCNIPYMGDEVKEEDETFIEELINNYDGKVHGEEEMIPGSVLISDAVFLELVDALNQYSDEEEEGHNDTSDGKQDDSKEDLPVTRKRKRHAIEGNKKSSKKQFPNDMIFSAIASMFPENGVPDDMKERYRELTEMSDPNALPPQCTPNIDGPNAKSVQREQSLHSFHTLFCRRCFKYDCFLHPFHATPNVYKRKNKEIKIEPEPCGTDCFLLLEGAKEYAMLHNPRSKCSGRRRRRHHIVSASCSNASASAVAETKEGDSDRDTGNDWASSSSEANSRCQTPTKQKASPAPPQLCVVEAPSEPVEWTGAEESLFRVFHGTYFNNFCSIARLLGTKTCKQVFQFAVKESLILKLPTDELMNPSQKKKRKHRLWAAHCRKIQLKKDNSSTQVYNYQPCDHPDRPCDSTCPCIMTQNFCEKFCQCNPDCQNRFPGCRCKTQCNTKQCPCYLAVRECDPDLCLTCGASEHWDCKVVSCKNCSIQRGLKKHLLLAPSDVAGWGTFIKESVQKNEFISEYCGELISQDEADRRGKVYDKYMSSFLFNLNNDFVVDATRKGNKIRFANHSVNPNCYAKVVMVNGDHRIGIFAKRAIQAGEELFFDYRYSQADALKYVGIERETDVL

Variant | effect of a mutation on the interaction
F133V | with no effect

Variants of: B1
Conditions: with ezh2_human EZH2, Q15910

Variant | effect of a mutation on the interaction
F133V | with no effect

Variants of: B1
Conditions: with facd2_human FANCD2, Q9BXW9

Variant | effect of a mutation on the interaction
F133V | with no effect

Variants of: B1
Conditions: with fgf19_human FGF19, O95750
Chain of fgf19_human FGF19, O95750 (O95750 whole entry): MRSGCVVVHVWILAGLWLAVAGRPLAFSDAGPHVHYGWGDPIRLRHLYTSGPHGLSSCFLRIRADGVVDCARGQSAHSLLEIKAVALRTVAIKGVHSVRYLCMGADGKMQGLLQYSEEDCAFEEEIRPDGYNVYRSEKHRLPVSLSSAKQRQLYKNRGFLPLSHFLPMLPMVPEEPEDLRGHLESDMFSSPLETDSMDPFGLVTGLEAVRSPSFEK

Variant | effect of a mutation on the interaction
F133V | with no effect

Variants of: B1
Conditions: with fgfp1_human FGFBP1, Q14512

Variant | effect of a mutation on the interaction
F133V | with no effect

Variants of: B1
Conditions: with fgfr4_human FGFR4, P22455

Variant | effect of a mutation on the interaction
F133V | with no effect

Variants of: B1
Conditions: with fumh_human FH

Variant | effect of a mutation on the interaction
F133V | with no effect

Variants of: B1
Conditions: with gbra6_human GABRA6, Q16445
Chain of gbra6_human GABRA6, Q16445 (Q16445 whole entry): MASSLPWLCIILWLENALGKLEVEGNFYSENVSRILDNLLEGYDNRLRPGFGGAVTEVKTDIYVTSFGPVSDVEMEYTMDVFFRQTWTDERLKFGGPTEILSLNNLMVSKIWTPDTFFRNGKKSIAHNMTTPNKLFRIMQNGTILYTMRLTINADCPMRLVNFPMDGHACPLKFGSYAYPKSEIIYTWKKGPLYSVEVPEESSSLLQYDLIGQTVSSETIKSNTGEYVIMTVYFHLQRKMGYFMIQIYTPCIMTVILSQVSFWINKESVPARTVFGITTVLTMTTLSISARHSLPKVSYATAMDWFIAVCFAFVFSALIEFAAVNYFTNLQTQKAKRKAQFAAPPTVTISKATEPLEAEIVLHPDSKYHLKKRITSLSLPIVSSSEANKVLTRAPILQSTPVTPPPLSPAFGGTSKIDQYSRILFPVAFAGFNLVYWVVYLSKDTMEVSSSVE

Variant | effect of a mutation on the interaction
F133V | with no effect

Variants of: B1
Conditions: with gata1_human GATA1, P15976

Variant | effect of a mutation on the interaction
F133V | with no effect

Variants of: B1
Conditions: with p66b_human GATAD2B

Variant | effect of a mutation on the interaction
F133V | with no effect

Variants of: B1
Conditions: with gna11_human GNA11, P29992

Variant | effect of a mutation on the interaction
F133V | with no effect

Variants of: B1
Conditions: with gna13_human GNA13, Q14344

Variant | effect of a mutation on the interaction
F133V | with no effect

Variants of: B1
Conditions: with gnaq_human GNAQ

Variant | effect of a mutation on the interaction
F133V | with no effect

Variants of: B1
Conditions: with grm1_human GRM1, Q13255

Variant | effect of a mutation on the interaction
F133V | with no effect

Variants of: B1
Conditions: with grm3_human GRM3, Q14832
Chain of grm3_human GRM3, Q14832 (Q14832 whole entry, looked up): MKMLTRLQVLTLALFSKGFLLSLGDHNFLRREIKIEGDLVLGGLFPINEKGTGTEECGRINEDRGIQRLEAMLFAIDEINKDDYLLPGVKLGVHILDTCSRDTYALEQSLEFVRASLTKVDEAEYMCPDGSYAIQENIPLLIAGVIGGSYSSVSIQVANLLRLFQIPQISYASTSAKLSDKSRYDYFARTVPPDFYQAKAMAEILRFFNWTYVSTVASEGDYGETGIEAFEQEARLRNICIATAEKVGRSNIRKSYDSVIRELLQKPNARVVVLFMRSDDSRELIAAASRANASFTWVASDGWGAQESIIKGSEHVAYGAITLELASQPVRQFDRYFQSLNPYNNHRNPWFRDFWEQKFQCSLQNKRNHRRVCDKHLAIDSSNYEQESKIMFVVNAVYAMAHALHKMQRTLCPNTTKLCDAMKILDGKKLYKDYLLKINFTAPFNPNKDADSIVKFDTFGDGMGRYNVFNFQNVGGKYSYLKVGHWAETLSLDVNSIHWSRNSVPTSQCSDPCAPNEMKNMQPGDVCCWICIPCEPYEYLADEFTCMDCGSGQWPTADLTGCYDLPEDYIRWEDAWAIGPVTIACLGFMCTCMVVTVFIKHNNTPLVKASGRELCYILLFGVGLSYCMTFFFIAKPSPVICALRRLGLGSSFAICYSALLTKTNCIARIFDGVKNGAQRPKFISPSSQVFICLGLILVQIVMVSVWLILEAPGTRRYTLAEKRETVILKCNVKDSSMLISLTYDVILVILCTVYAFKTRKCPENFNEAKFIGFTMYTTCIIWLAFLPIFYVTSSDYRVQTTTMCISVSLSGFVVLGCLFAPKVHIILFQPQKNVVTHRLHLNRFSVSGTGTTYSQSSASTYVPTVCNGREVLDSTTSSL

Variant | effect of a mutation on the interaction
F133V | with no effect

Variants of: B1
Conditions: with gtpb4_human GTPBP4, Q9BZE4

Variant | effect of a mutation on the interaction
F133V | with no effect

Variants of: B1
Conditions: with h33_human H3-3A

Variant | effect of a mutation on the interaction
F133V | with no effect

Variants of: B1
Conditions: with hdac1_human HDAC1, Q13547
Chain of hdac1_human HDAC1, Q13547 (Q13547 whole entry): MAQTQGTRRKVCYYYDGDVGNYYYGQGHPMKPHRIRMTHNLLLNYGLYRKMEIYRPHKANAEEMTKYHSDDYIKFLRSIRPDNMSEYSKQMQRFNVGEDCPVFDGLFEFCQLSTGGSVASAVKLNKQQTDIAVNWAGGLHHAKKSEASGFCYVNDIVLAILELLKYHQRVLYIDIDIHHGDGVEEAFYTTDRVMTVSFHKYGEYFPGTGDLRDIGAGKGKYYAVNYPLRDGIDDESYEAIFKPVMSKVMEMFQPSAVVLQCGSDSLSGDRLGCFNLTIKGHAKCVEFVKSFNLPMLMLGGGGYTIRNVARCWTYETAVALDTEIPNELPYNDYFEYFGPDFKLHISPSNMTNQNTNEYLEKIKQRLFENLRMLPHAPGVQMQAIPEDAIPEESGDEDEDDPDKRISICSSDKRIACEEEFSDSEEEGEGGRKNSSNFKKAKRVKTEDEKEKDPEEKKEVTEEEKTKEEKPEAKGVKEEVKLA

Variant | effect of a mutation on the interaction
F133V | with no effect

Variants of: B1
Conditions: with hdac3_human HDAC3, O15379

Variant | effect of a mutation on the interaction
F133V | with no effect

Variants of: B1
Conditions: with hgf_human HGF

Variant | effect of a mutation on the interaction
F133V | with no effect

Variants of: B1
Conditions: with h31_human H3C1, P68431

Variant | effect of a mutation on the interaction
F133V | with no effect

Variants of: B1
Conditions: with hlab_human HLA-B

Variant | effect of a mutation on the interaction
F133V | with no effect

Variants of: B1
Conditions: with hnf1a_human HNF1A

Variant | effect of a mutation on the interaction
F133V | with no effect

Variants of: B1
Conditions: with igf1r_human IGF1R

Variant | effect of a mutation on the interaction
F133V | with no effect

Variants of: B1
Conditions: with il7ra_human IL7R

Variant | effect of a mutation on the interaction
F133V | with no effect

Variants of: B1
Conditions: with int12_human INTS12, Q96CB8

Variant | effect of a mutation on the interaction
F133V | with no effect

Variants of: B1
Conditions: with ist1_human IST1, P53990

Variant | effect of a mutation on the interaction
F133V | with no effect

Variants of: B1
Conditions: with jak1_human JAK1, P23458

Variant | effect of a mutation on the interaction
F133V | with no effect

Variants of: B1
Conditions: with jak3_human JAK3, P52333

Variant | effect of a mutation on the interaction
F133V | with no effect

Variants of: B1
Conditions: with kat2a_human KAT2A

Variant | effect of a mutation on the interaction
F133V | with no effect

Variants of: B1
Conditions: with kdm5a_human KDM5A

Variant | effect of a mutation on the interaction
F133V | with no effect

Variants of: B1
Conditions: with kdm5c_human KDM5C

Variant | effect of a mutation on the interaction
F133V | with no effect

Variants of: B1
Conditions: with vgfr2_human KDR

Variant | effect of a mutation on the interaction
F133V | with no effect

Variants of: B1
Conditions: with lims1_human LIMS1, P48059

Variant | effect of a mutation on the interaction
F133V | with no effect

Variants of: B1
Conditions: with maga6_human MAGEA6, P43360

Variant | effect of a mutation on the interaction
F133V | with no effect

Variants of: B1
Conditions: with m3k1_human MAP3K1, Q13233

Variant | effect of a mutation on the interaction
F133V | with no effect

Variants of: B1
Conditions: with mk10_human MAPK10, P53779

Variant | effect of a mutation on the interaction
F133V | with no effect

Variants of: B1
Conditions: with mk14_human MAPK14, Q16539

Variant | effect of a mutation on the interaction
F133V | with no effect

Variants of: B1
Conditions: with mk03_human MAPK3, P27361
Chain of mk03_human MAPK3, P27361 (P27361 whole entry): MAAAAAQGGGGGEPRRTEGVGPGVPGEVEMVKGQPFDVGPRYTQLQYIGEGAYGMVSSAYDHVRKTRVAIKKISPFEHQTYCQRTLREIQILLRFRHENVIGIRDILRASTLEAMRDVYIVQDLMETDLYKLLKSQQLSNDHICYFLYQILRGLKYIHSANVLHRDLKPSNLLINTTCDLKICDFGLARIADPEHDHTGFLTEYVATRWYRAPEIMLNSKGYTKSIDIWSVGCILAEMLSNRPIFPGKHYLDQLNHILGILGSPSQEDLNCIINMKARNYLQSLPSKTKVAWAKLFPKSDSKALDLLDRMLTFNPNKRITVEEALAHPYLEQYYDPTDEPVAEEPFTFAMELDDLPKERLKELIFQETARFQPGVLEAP

Variant | effect of a mutation on the interaction
F133V | with no effect

Variants of: B1
Conditions: with mk04_human MAPK4, P31152

Variant | effect of a mutation on the interaction
F133V | with no effect

Variants of: B1
Conditions: with mk06_human MAPK6, Q16659

Variant | effect of a mutation on the interaction
F133V | with no effect

Variants of: B1
Conditions: with sin1_human MAPKAP1, Q9BPZ7

Variant | effect of a mutation on the interaction
F133V | with no effect

Variants of: B1
Conditions: with mcl1_human MCL1, Q07820

Variant | effect of a mutation on the interaction
F133V | with no effect

Variants of: B1
Conditions: with mdm2_human MDM2, Q00987

Variant | effect of a mutation on the interaction
F133V | with no effect

Variants of: B1
Conditions: with mitf_human MITF

Variant | effect of a mutation on the interaction
F133V | with no effect

Variants of: B1
Conditions: with mlh1_human MLH1, P40692

Variant | effect of a mutation on the interaction
F133V | with no effect

Variants of: B1
Conditions: with mtor_human MTOR

Variant | effect of a mutation on the interaction
F133V | with no effect

Variants of: B1
Conditions: with myb_human MYB

Variant | effect of a mutation on the interaction
F133V | with no effect

Variants of: B1
Conditions: with mybb_human MYBL2, P10244

Variant | effect of a mutation on the interaction
F133V | with no effect

Variants of: B1
Conditions: with myc_human MYC

Variant | effect of a mutation on the interaction
F133V | with no effect
